One assay concerns the target human VEGFR1-hFc (human) (UniProt P17948).
Assay [1] deals with VEGF Trap (aflibercept) (human). Description: SPR; Biacore 3000, CM5 chip, 25°C, HBS-T (10 mM Hepes, 150 mM NaCl, 3.4 mM EDTA, 0.05% polysorbate 20, pH 7.4); VEGF Trap or receptor-Fc captured at low density on amine-coupled Protein A, ligands injected (1.0–0.062 nM VEGF-A, 2.5–0.156 nM VEGF-B(10-108), 5.0–0.078 nM PlGF); kd of VEGF-A ligands by the 'fixed kd' procedure on a Biacore 2000 (~2–3 h); KD = kd/ka. (In general: Surface plasmon resonance follows binding to a sensor surface in real time, without labels.)
Sequence of VEGF Trap (aflibercept) (human) (chain, INN chains, looked up, as listed by the source): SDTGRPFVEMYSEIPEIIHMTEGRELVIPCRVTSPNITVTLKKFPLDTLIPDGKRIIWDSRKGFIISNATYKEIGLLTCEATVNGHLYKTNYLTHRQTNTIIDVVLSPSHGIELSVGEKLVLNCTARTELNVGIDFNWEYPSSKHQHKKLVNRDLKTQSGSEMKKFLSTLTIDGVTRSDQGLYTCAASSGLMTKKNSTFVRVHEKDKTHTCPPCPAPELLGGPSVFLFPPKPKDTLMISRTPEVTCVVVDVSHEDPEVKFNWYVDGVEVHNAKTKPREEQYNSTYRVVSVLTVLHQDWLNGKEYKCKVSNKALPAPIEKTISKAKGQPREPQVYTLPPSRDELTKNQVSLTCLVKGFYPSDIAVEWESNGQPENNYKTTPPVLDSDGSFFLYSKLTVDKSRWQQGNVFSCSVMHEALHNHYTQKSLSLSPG

The target is the same in assay [2]. Briefly: KinExA solution equilibrium assay; KinExA 3000, room temperature (25°C); VEGF Trap (1–50 pM) equilibrated 10–96 h with varying ligand; unbound inhibitor captured on VEGF-A165-coupled Azlactone beads and detected with Cy5 anti-human IgG; one-site homogeneous binding model. Background: A kinetic exclusion assay measures how much of one partner remains free in solution.

This is an account of results in paper PMC3338918.

In general, Kd refers to the equilibrium constant for the complex coming apart. Read a high Kd as weaker binding. As a reminder, the koff is the rate constant with which the complex falls apart. A low value points to slow dissociation. As usually defined, the kon is a measure of how fast the partners come together.

Sequence of human VEGFR1-hFc (human) (P17948 27-758): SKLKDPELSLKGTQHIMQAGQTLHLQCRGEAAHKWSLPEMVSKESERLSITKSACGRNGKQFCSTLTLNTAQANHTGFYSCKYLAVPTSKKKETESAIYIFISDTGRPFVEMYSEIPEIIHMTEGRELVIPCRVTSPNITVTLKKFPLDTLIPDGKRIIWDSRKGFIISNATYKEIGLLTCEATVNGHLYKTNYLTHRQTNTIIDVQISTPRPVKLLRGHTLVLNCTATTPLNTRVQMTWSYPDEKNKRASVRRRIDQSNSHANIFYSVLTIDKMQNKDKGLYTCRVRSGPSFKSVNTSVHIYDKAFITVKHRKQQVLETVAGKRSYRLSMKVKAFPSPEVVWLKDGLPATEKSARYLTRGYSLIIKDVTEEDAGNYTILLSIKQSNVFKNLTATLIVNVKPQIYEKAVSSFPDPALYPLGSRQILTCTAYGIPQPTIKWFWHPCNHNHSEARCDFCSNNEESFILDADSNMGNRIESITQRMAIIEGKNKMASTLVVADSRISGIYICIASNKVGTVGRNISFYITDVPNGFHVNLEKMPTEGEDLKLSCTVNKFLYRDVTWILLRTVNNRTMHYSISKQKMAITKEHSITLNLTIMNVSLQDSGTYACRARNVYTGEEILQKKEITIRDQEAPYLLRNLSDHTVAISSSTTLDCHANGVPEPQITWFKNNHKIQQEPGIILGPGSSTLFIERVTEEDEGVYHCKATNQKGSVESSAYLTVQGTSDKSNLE

B1: murine PlGF-2 (ligand)
chain: VHSQGALSAGNNSTEVEVVPFNEVWGRSYCRPMEKLVYILDEYPDEVSHIFSPSCVLLSRCSGCCGDEGLHCVPIKTANITMQILKIPPNRDPHFYVEMTFSQDVLCECRPILETTKAERRKTKGKRKRSRNSQTEEPHP
Take B1: the EC50 of luciferase activation in HEK293/VEGFR1 cells (dose response, 0.022 pM to 4.0 nM) with human VEGFR1-hFc (human) is 10 pM. The same molecule had a Kd in assay [1] of 0.00332 nM.

B2: human PlGF-2 (ligand)
chain: LPAVPPQQWALSAGNGSSEVEVVPFQEVWGRSYCRALERLVDVVSEYPSEVEHMFSPSCVSLLRCTGCCGDENLHCVPVETANVTMQLLKIRSGDRPSYVELTFSQHVRCECRPLREKMKPERRRPKGRGKRRREKQRPTDCHLCGDAVPRR
For B2, the EC50 of luciferase activation in HEK293/VEGFR1 cells (dose response, 0.022 pM to 4.0 nM) with human VEGFR1-hFc (human) was 29 pM. Also, the Kd in assay [2] amounted to 0.0207 nM. Further, in assay [1], the dissociation constant (Kd) was found to be 0.0389 nM, the koff was determined as 6.81e-05 s⁻¹ and the kon was found to be 1.75e+06 M⁻¹ s⁻¹.
